The source of these data is patent publication US20230399394A1 (SUNSHINE GUOJIAN PHARMACEUTICAL SHANGHAI, published 2023).

Residue numbers refer to the chain shown, from its start.

Experiment [1] deals with T1, IL-33 mutant protein D65A (human, UniProt O95760 112-270).
T1 construct: Prokaryotic expression
T1 chain: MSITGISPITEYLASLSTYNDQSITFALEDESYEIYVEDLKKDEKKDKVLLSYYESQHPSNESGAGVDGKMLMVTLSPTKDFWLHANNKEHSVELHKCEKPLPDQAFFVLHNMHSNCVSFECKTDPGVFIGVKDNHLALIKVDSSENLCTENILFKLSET
The experiment can be described thus: ELISA as Example 9; row D65A. Here is the method:
(§1) SA protein was diluted to 2 μg/mL to coat ELISA plate at 100 μL/well overnight at 4° C. The plate was washed with PBST (PBS containing 0.05% Tween20) for 3 times, and blocked with 2% BSA prepared in PBS at 200 μL/well, at room temperature for 2 h. After the plate was washed twice with PBST, IL-33-his-biotin protein was diluted to 1 μg/mL with 1% BSA prepared in PBST, and was added to ELISA plate at 100 μL/well. The plate was incubated at room temperature for 1 h, and each monoclonal antibody was diluted with 1% BSA prepared in PBST in a 3-fold gradient. The highest concentration of antibody was 10 μg/mL, and the antibody was diluted for 12 gradients. Each diluted monoclonal antibody was added to ELISA wells with 100 μL/well, and the plate was incubated at room temperature for 1 h. Each sample was added to duplicate wells in parallel. The plate was washed with PBST for 3 times, and HRP-anti human IgG Fc secondary antibody prepared with PBST was diluted at an appropriate ratio, and was added to ELISA wells at 100 μL/well. […] Each reaction solution was shaken uniformly and OD450 nm was read on a microplate reader. The data was analyzed and EC₅₀ was calculated.
(§2) Subsequently, according to the experimental method of Example 9, the affinity of the above mutant proteins to 874F7-Hu1 was determined, and IL-33 proteins (WT-1, WT-2, WT-3, and WT-4) without any mutation were set as controls.
On the technique in general: An ELISA detects its analyte on a solid surface through an enzyme-linked reagent.

The target in experiment [2] is T2, IL-33 mutant protein E62A (human, UniProt O95760 112-270).
T2 construct: Prokaryotic expression
T2 chain: T1 chain with E62A, A65D
The experiment can be described thus: ELISA as Example 9; row E62A. Here is the method:
as §1, §2

The target of experiment [3] is T3, IL-33 mutant protein S60A (human, UniProt O95760 112-270).
T3 construct: Prokaryotic expression; also called 560A
T3 chain: T1 chain with S60A, A65D
The experiment can be described thus: ELISA as Example 9; row S60A. Here is the method: as §1, §2

Experiment [4] addresses T4, IL-33 mutant protein V67A (human, UniProt O95760 112-270).
T4 construct: Prokaryotic expression
T4 chain: T1 chain with A65D, V67A
Description: ELISA as Example 9; row V67A. How it is done: as §1, §2

Experiment [5] deals with T5, IL-33 protein without any mutation (WT) (human, UniProt O95760 112-270).
T5 construct: Control of the alanine scan (four runs WT-1 to WT-4); also called WT-1; WT-2
T5 sequence: T1 chain with A65D
Description: ELISA as Example 9; row WT-4. Here is the method: as §1, §2

Experiment [6] has as its target T6, IL-33 mutant protein K70A (human, UniProt O95760 112-270).
T6 construct: Prokaryotic expression
T6 chain: T1 chain with A65D, K70A
The experiment can be described thus: ELISA as Example 9; row K70A against WT-3. Here is the method:
as §1, §2

Experiment [7] concerns the target T7, IL-33 mutant protein L50A (human, UniProt O95760 112-270).
T7 construct: Prokaryotic expression
T7 chain: T1 chain with L50A, A65D
Description: ELISA as Example 9; row L50A against WT-4. How it is done:
as §1, §2

Experiment [8] has as its target T8, IL-33 mutant protein P59A (human, UniProt O95760 112-270).
T8 construct: Prokaryotic expression
T8 chain: T1 chain with P59A, A65D
The experiment can be described thus: ELISA as Example 9; row P59A against WT-1. How it is done: as §1, §2

Experiment [9] deals with T5, IL-33 protein without any mutation (WT). Description: ELISA as Example 9; row WT-1, the reference itself. Here is the method: as §1, §2
For experiment [10], the target named is T9, IL-33 mutant protein V49A (human, UniProt O95760 112-270).
T9 construct: Prokaryotic expression
T9 chain: T1 chain with V49A, A65D
The experiment can be described thus: ELISA by the method of Example 9 with the IL-33 mutant protein on the plate, 874F7-Hu1 in serial dilution, HRP anti-human IgG Fc, absorbance 450 nm.

The EC50 is the concentration giving half of the maximal effect. Read a low EC50 as an effect from little substance. As usually defined, the EC50 (read off the curve) is the midpoint of the concentration-response curve.

B1: 874F7-Hu1 (antibody, human IgG4 S228P, kappa)
heavy: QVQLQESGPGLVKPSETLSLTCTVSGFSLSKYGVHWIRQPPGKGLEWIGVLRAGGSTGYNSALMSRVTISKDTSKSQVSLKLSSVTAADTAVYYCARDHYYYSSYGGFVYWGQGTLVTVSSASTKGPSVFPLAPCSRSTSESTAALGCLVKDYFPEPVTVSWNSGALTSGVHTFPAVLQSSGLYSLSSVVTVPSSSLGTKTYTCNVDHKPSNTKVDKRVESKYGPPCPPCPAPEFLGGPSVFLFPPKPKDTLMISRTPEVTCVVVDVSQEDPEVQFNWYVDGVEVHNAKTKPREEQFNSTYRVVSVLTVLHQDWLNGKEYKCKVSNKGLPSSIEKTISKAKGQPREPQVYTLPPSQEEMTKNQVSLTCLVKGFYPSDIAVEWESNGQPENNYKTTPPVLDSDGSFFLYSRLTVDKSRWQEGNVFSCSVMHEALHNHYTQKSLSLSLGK
light: DIQMTQSPSSVSASVGDRVTITCLASQTIGAWLAWYQQKPGKSPKLLIYAATRLADGVPSRFSGSGSGTDFTLTISSLQPEDFATYYCQQLDSSPYTFGQGTKVEIKRTVAAPSVFIFPPSDEQLKSGTASVVCLLNNFYPREAKVQWKVDNALQSGNSQESVTEQDSKDSTYSLSSTLTLSKADYEKHKVYACEVTHQGLSSPVTKSFNRGEC
notes: also called 874F7-Hul; humanized antibody 874F7-Hu1
Take B1: the EC50 was 35.3 nM in [1]; 0.15 nM in experiment [2]; 5.31 nM in experiment [3]; 0.11 nM in experiment [4]; 0.12 nM in experiment [5]. The Affinity decline ratio in experiment [6] is 0.6 fold; in experiment [7], 28.5 fold; in experiment [8] it was 0.5 fold; in experiment [9], 1 fold. Also, the “EC50 (read off the curve)” value in [10] is around 3 nM.
